Reference: publication PMC4491210

Key:
Cys89 = Cys89 (UniProt position 89, FGRNGCSYCER); assay: UV-vis; conditions: 25 °C; 200 mM NaCl; 10 mM Tris, 10 mM sodium citrate, 1 mM EDTA; Reduced protein referenced to oxidized protein; about 20 µM protein
Cys92 = Cys92 (UniProt position 92, NGCSYCERFKK); assay: UV-vis; conditions: 25 °C; 200 mM NaCl; 10 mM Tris, 10 mM sodium citrate, 1 mM EDTA; Reduced protein referenced to oxidized protein; about 20 µM protein
Cys = conditions: cited from earlier work
[1] = target: HP0377 lacking its own signal sequence (residues 25-221 of native HP0377) with a C-terminal 6 His tag (Helicobacter pylori 26695); assay: cross-linking; glutaraldehyde 0.001-0.1 % v/v, HP0377 2.5 mg/ml, room temperature, 20 min, 0.05 M bicine-NaOH pH 8.5, 0.1 mM DTT, 0.4 M NaCl, quenched with ethanolamine-HCl; SDS-PAGE; monomer to dimer
[2] = target: HP0377 lacking its own signal sequence (residues 25-221 of native HP0377) with a C-terminal 6 His tag (Helicobacter pylori 26695); assay: SEC; Superdex75 HiLoad 16/600, 20 mM Tris pH 8, 150 mM NaCl, absorbance at 280 nm, calibrated with Bio-Rad Gel Filtration Standard; monomer and dimer peaks

Substance: HP0377 (CcmG/DsbE/ResA-like thiol:disulfide oxidoreductase) (Helicobacter pylori 26695)
- pKa (Cys89): 3.56 ± 0.11
- pKa (Cys92): 9.23 ± 0.21

Substance: ResA (Bacillus subtilis)
- pKa (Cys): 8.8

Substance: HP0377 lacking its own signal sequence (residues 25-221 of native HP0377) with a C-terminal 6 His tag (domain or fragment)
- stoichiometry N [1]: 2
- stoichiometry N [2]: 2

Substance: CcmG (DsbE) (Escherichia coli)
- pKa (Cys): 6.8

Substance: DsbC (Escherichia coli)
- pKa (Cys): 4.1 ± 0.3

Substance: DsbA (Escherichia coli)
- pKa (Cys): 3.5
